Assay results reported in patent US8669352 (PANGENETICS B V, dated 2014).

Each binder was assayed against T1, human CD40 (human, UniProt P25942 21-277) (assay: FACS on JY cells expressing CD40; 100 µl PER.C6 transient supernatant harvested after 48 h (antibody concentration not equalised), FITC anti-human IgG 1/100; in the same figure Mock Control Mean 11.25 / Median 8.74, FACS control (secondary only) Mean 10.18 / Median 8.74).
T1 construct: whole, on cells; also called huCD40; CD40 expressed on JY cells
Method: (§1) FIG. 8. FACS analysis using JY cells. PER.C6 cell supernatant of the transient expressed variants (Q5E, K13A, E16Q, T17S, I29L, 37V, P45L, M48L, STS60NSA, T68S, S79F, and T108S) of 5D12 was harvested after 48 h. As control also supernatant was harvested of cells transfected with either ch5D12 or D15D12 together with supernatant from mock (no plasmid) transfected cells. Binding of expressed antibodies was tested by FACS using JY cells together with anti-human FITC labelled secondary antibody (1/100 diluted). As FACS control JY cells were incubated with only the secondary FITC labelled antibody.
(§2) By FACS analysis the antigen specificity of the expressed antibodies was analyzed. JY cells are EBV transformed human B-cells, which express CD40. Briefly, 100,000 JY cells were incubated with 100 µl supernatant from the transient expression experiment at 4° C. for 20 minutes. To remove unbound antibody cells were washed with PBS containing 0.05% NaAzide and 1% BSA. As secondary antibody 1/100 diluted FITC labeled anti-human IgG (Jackson 109-095-127) was used. After 20 minutes incubation at 4° C. cells were washed. Finally cell samples were measured on a FACScan (BD).

T1 sequence (P25942 21-277): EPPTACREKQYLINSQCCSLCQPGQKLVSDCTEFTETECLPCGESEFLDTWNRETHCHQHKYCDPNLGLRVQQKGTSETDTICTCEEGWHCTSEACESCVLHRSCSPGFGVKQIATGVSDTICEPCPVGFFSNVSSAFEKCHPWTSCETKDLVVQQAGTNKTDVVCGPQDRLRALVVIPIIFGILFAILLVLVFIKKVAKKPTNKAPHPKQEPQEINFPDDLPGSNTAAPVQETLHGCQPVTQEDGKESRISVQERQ

Binder | Mean (FL1-H) | Median (FL1-H)
E16Q variant of deimmunised 5D12 (antibody, human IgG4, V domains shown, VH on a human IgG4 backbone) VH: QVKLQESGPGLVKPSQTLSITCTVSGFSISRYSVYWIRQPPGKGPEWMGMMWGGGSTDYSTSLKSRLTISKDTSKSQVSLKMNSLRTDDTAMYYCVRTDGDYWGQGTTVTVSS VL: ELQLTQSPLSLPVTLGQPASISCRSSQSLANSNGNTYLHWYLQRPGQSPRLLIYKVSNRFSGVPDRFSGSGSGTDFTLKISRVEAEDVGVYYCSQSTHVPWTFGGGTKLEIKR | 39.5 FL1-H | 38.2 FL1-H
K13A variant of deimmunised 5D12 (antibody, human IgG4, V domains shown, VH on a human IgG4 backbone) VH: QVKLQESGPGLVAPSETLSITCTVSGFSISRYSVYWIRQPPGKGPEWMGMMWGGGSTDYSTSLKSRLTISKDTSKSQVSLKMNSLRTDDTAMYYCVRTDGDYWGQGTTVTVSS VL: ELQLTQSPLSLPVTLGQPASISCRSSQSLANSNGNTYLHWYLQRPGQSPRLLIYKVSNRFSGVPDRFSGSGSGTDFTLKISRVEAEDVGVYYCSQSTHVPWTFGGGTKLEIKR | 31.2 FL1-H | 30 FL1-H
I37V variant of deimmunised 5D12 (antibody, human IgG4, V domains shown, VH on a human IgG4 backbone; also called 137V; 29I-37V) VH: QVKLQESGPGLVKPSETLSITCTVSGFSISRYSVYWVRQPPGKGPEWMGMMWGGGSTDYSTSLKSRLTISKDTSKSQVSLKMNSLRTDDTAMYYCVRTDGDYWGQGTTVTVSS VL: ELQLTQSPLSLPVTLGQPASISCRSSQSLANSNGNTYLHWYLQRPGQSPRLLIYKVSNRFSGVPDRFSGSGSGTDFTLKISRVEAEDVGVYYCSQSTHVPWTFGGGTKLEIKR | 96 FL1-H | 82 FL1-H
Q5E variant of deimmunised 5D12 (antibody, human IgG4, V domains shown, VH on a human IgG4 backbone) VH: QVKLEESGPGLVKPSETLSITCTVSGFSISRYSVYWIRQPPGKGPEWMGMMWGGGSTDYSTSLKSRLTISKDTSKSQVSLKMNSLRTDDTAMYYCVRTDGDYWGQGTTVTVSS VL: ELQLTQSPLSLPVTLGQPASISCRSSQSLANSNGNTYLHWYLQRPGQSPRLLIYKVSNRFSGVPDRFSGSGSGTDFTLKISRVEAEDVGVYYCSQSTHVPWTFGGGTKLEIKR | 39 FL1-H | 37.5 FL1-H
T17S variant of deimmunised 5D12 (antibody, human IgG4, V domains shown, VH on a human IgG4 backbone) VH: QVKLQESGPGLVKPSESLSITCTVSGFSISRYSVYWIRQPPGKGPEWMGMMWGGGSTDYSTSLKSRLTISKDTSKSQVSLKMNSLRTDDTAMYYCVRTDGDYWGQGTTVTVSS VL: ELQLTQSPLSLPVTLGQPASISCRSSQSLANSNGNTYLHWYLQRPGQSPRLLIYKVSNRFSGVPDRFSGSGSGTDFTLKISRVEAEDVGVYYCSQSTHVPWTFGGGTKLEIKR | 33.4 FL1-H | 31.9 FL1-H

The binders below were run against T1, human CD40 (assay: FACS on JY cells expressing CD40; 100 µl PER.C6 transient supernatant harvested after 48 h (antibody concentration not equalised), FITC anti-human IgG 1/100; in the same figure Mock Control Mean 11.25 / Median 8.74, FACS control (secondary only) Mean 10.18 / Median 8.74 [Condt.]).
Method: as §1, §2

Binder | Mean (FL1-H) | Median (FL1-H)
S79F variant of deimmunised 5D12 (antibody, human IgG4, V domains shown, VH on a human IgG4 backbone) VH: QVKLQESGPGLVKPSETLSITCTVSGFSISRYSVYWIRQPPGKGPEWMGMMWGGGSTDYSTSLKSRLTISKDTSKSQVFLKMNSLRTDDTAMYYCVRTDGDYWGQGTTVTVSS VL: ELQLTQSPLSLPVTLGQPASISCRSSQSLANSNGNTYLHWYLQRPGQSPRLLIYKVSNRFSGVPDRFSGSGSGTDFTLKISRVEAEDVGVYYCSQSTHVPWTFGGGTKLEIKR | 96.4 FL1-H | 82 FL1-H
M48L variant of deimmunised 5D12 (antibody, human IgG4, V domains shown, VH on a human IgG4 backbone) VH: QVKLQESGPGLVKPSETLSITCTVSGFSISRYSVYWIRQPPGKGPEWLGMMWGGGSTDYSTSLKSRLTISKDTSKSQVSLKMNSLRTDDTAMYYCVRTDGDYWGQGTTVTVSS VL: ELQLTQSPLSLPVTLGQPASISCRSSQSLANSNGNTYLHWYLQRPGQSPRLLIYKVSNRFSGVPDRFSGSGSGTDFTLKISRVEAEDVGVYYCSQSTHVPWTFGGGTKLEIKR | 80.3 FL1-H | 72.3 FL1-H
T108S variant of deimmunised 5D12 (antibody, human IgG4, V domains shown, VH on a human IgG4 backbone) VH: QVKLQESGPGLVKPSETLSITCTVSGFSISRYSVYWIRQPPGKGPEWMGMMWGGGSTDYSTSLKSRLTISKDTSKSQVSLKMNSLRTDDTAMYYCVRTDGDYWGQGTSVTVSS VL: ELQLTQSPLSLPVTLGQPASISCRSSQSLANSNGNTYLHWYLQRPGQSPRLLIYKVSNRFSGVPDRFSGSGSGTDFTLKISRVEAEDVGVYYCSQSTHVPWTFGGGTKLEIKR | 99 FL1-H | 85.8 FL1-H
T68S variant of deimmunised 5D12 (antibody, human IgG4, V domains shown, VH on a human IgG4 backbone) VH: QVKLQESGPGLVKPSETLSITCTVSGFSISRYSVYWIRQPPGKGPEWMGMMWGGGSTDYSTSLKSRLSISKDTSKSQVSLKMNSLRTDDTAMYYCVRTDGDYWGQGTTVTVSS VL: ELQLTQSPLSLPVTLGQPASISCRSSQSLANSNGNTYLHWYLQRPGQSPRLLIYKVSNRFSGVPDRFSGSGSGTDFTLKISRVEAEDVGVYYCSQSTHVPWTFGGGTKLEIKR | 35.2 FL1-H | 34 FL1-H
STS60NSA variant of deimmunised 5D12 (antibody, human IgG4, V domains shown, VH on a human IgG4 backbone) VH: QVKLQESGPGLVKPSETLSITCTVSGFSISRYSVYWIRQPPGKGPEWMGMMWGGGSTDYNSALKSRLTISKDTSKSQVSLKMNSLRTDDTAMYYCVRTDGDYWGQGTTVTVSS VL: ELQLTQSPLSLPVTLGQPASISCRSSQSLANSNGNTYLHWYLQRPGQSPRLLIYKVSNRFSGVPDRFSGSGSGTDFTLKISRVEAEDVGVYYCSQSTHVPWTFGGGTKLEIKR | 62.4 FL1-H | 58.8 FL1-H
P45L variant of deimmunised 5D12 (antibody, human IgG4, V domains shown, VH on a human IgG4 backbone) VH: QVKLQESGPGLVKPSETLSITCTVSGFSISRYSVYWIRQPPGKGLEWMGMMWGGGSTDYSTSLKSRLTISKDTSKSQVSLKMNSLRTDDTAMYYCVRTDGDYWGQGTTVTVSS VL: ELQLTQSPLSLPVTLGQPASISCRSSQSLANSNGNTYLHWYLQRPGQSPRLLIYKVSNRFSGVPDRFSGSGSGTDFTLKISRVEAEDVGVYYCSQSTHVPWTFGGGTKLEIKR | 82.5 FL1-H | 74.3 FL1-H
